Laboratory results from PMC10192925, “Rapid, scalable assay of amylin-β amyloid co-aggregation in brain tissue and blood” (The Journal of Biological Chemistry, 2023).

Target: T1, Aβ40 synthetic peptide (human, UniProt P05067 672-711)
T1 construct: β amyloid, the isoform ending at the 40th amino acid (Aβ40), cut product of the amyloid precursor protein; numbers count on: the Aβ peptide; Pre-incubated at 16.2 uM at 37 C for 2 h before mixing 1:1 (volume) with amylin and incubating 24 h at 37 C; also called β amyloid; human Aβ40; source: synthetic peptide; bought: Anaspec (AS-24235)
Assay: ELISA; amylin-Aβ sandwich ELISA on solutions of peptides co-incubated at 37 C for 24 h in PBS with 0.05% sodium azide (30 uM amylin and 16.2 uM Aβ mixed 1:1); capture by the polyclonal anti-amylin P2 antibody, detection by an HRP-conjugated anti-Aβ antibody
Conditions: both partners purified

binding result: binds
B1: human amylin synthetic peptide (peptide, UniProt P10997 34-70, looked up)
peptide: KCNTATCATQRLANFLVHSSNNFGAILSSTNVGSNTY
notes: Amylin (islet amyloid polypeptide), human, synthetic peptide; Pre-incubated at 30 uM in PBS with 0.05% sodium azide at 37 C for 5 h before mixing with Aβ40; also called islet amyloid polypeptide; source: synthetic peptide; bought: Anaspec (AS-60254-1)
